Laboratory results from doi:10.1101/306035.

Experiments:
[1] = target: DcaP lacking 40 residues at the N-terminus of the mature protein (DcaP_(DN40)) (Acinetobacter baumannii (strain AB307-0294)); experiment: SEC
[2] = target: barrel-only DcaP lacking the first 59 residues (DcaP_(Trunc)) (Acinetobacter baumannii (strain AB307-0294)); experiment: SEC
[3] = target: full-length DcaP from Acinetobacter baumannii AB307-0294 (DcaPfl) (Acinetobacter baumannii (strain AB307-0294)); experiment: SEC
[4] = target: full-length DcaP from Acinetobacter baumannii AB307-0294 (DcaPfl) (Acinetobacter baumannii (strain AB307-0294)); experiment: single channel electrophysiology in planar lipid bilayers
[5] = target: seleno-methionine substituted DcaP_(DN40) with L280M and L282M (Acinetobacter baumannii (strain AB307-0294)); experiment: crystal structure

## DcaP lacking 40 residues at the N-terminus of the mature protein (DcaP_(DN40)) (domain or fragment)
[1]
  stoichiometry N: 3

## barrel-only DcaP lacking the first 59 residues (DcaP_(Trunc)) (domain or fragment)
[2]
  stoichiometry N: 3

## full-length DcaP from Acinetobacter baumannii AB307-0294 (DcaPfl) (natural protein)
[3]
  stoichiometry N: 3
[4]
  stoichiometry N: 3

## seleno-methionine substituted DcaP_(DN40) with L280M and L282M (domain or fragment)
[5]
  stoichiometry N: 3
